Measurements taken from patent US20240383990A1 (DIAGONAL THERAPEUTICS, published 2024).
Changes are numbered by the printed parent chain.

B1: DGL207 (bispecific antibody)
chain 1: QVQLVESGGGLVQAGGSLRLSCAASGRTFSKHAMGWFRQAPGKEREFVAAIDWSGGSTYYADSVKGRFTISRDNAKNTVYLQMDSLKPEDTAVYYCAADSYTDYAQLWLPELESEYDYWGQGTLVTVSSCPPCPAPEAAGAPSVFLFPPKPKDTLMISRTPEVTCVVVDVSHEDPEVKFNWYVDGVEVHNAKTKPREEQYNSTYRVVSVLTVLHQDWLNGKEYKCKVSNKALPAPIEKTISKAKGQPREPQVCTLPPSRDELTKNQVSLSCAVKGFYPSDIAVEWESNGQPENNYKTTPPVLDSDGSFFLVSKLTVDKSRWQQGNVFSCSVMHEALHNHYTQKSLSLSPGWSHPQFEK
chain 2: QLQLVESGGGLVQAGGSLRLSCAASRSITFSHNVMGWYRQAPGKQRELVASIGSGGSTNYVDSVKGRATISRDNAKKTVYLQMNSLKPEDTAVYYCGVVVGVYRGSLGQGTLVTVSSCPPCPAPEAAGAPSVFLFPPKPKDTLMISRTPEVTCVVVDVSHEDPEVKFNWYVDGVEVHNAKTKPREEQYNSTYRVVSVLTVLHQDWLNGKEYKCKVSNKALPAPIEKTISKAKGQPREPQVYTLPPCRDELTKNQVSLWCLVKGFYPSDIAVEWESNGQPENNYKTTPPVLDSDGSFFLYSKLTVDKSRWQQGNVFSCSVMHEALHNHYTQKSLSLSPGEPEA
B2: DGL945 (bispecific antibody, human IgG1, lambda)
heavy: EVQLLESGGGLVQPGGSLRLSCAASGFTFSDYYMTWIRQAPGKGLEWVSSISGGSTYYADSRKGRFTISRDNSENTLYLQMNSLRAEDTAVYYCARDFGVAGWFGQYGMDVWGQGTLVTVSSPLAPEVQLLESGGGLVQPGGSLRLSCAASGFTFSSYAMSWVRQAPGKGLEWVANINQDGSEKNYVDSMRGRFTISRDNSKNTLYLQMNSLRAEDTAVYYCAREFDYWGQGTLVTVSSASTKGPSVFPLAPSSKSTSGGTAALGCLVKDYFPEPVTVSWNSGALTSGVHTFPAVLQSSGLYSLSSVVTVPSSSLGTQTYICNVNHKPSNTKVDKKVEPKSCDKTHTCPPCPAPEAAGAPSVFLFPPKPKDTLYITREPEVTCVVVDVSHEDPEVKFNWYVDGVEVHNAKTKPREEQYNSTYRVVSVLTVLHQDWLNGKEYKCKVSNKALPAPIEKTISKAKGQPREPQVYTLPPSRDELTKNQVSLTCLVKGFYPSDIAVEWESNGQPENNYKTTPPVLDSDGSFFLYSKLTVDKSRWQQGNVFSCSVMHEALHNHYTQKSLSLSPG
light: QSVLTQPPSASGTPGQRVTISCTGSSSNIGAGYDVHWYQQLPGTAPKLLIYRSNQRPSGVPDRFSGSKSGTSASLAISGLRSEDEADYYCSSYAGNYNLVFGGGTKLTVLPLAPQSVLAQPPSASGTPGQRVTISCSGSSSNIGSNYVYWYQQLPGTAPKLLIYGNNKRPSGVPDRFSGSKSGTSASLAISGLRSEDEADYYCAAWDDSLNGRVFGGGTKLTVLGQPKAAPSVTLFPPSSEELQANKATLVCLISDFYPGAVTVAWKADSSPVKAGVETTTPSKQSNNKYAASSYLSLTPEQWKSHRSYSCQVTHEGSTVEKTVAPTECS
B3: DGL947 (bispecific antibody, human IgG1, lambda)
heavy: B2 heavy with T35N, R62V, Y107F, A159W, N185Y, F226Y
light: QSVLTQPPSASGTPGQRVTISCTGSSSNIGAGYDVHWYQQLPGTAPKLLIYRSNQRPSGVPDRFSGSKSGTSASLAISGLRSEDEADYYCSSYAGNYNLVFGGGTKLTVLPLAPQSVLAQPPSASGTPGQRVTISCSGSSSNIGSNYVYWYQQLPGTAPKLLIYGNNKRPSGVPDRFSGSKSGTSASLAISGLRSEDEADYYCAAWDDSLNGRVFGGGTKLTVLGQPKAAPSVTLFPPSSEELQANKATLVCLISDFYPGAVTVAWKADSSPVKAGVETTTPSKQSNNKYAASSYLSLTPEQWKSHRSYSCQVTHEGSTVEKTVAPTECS
B4: DGL949 (bispecific antibody, human IgG1, lambda)
heavy: B2 heavy with T35N, R62V, Q106Y, A159W, N178K, Y228F
light: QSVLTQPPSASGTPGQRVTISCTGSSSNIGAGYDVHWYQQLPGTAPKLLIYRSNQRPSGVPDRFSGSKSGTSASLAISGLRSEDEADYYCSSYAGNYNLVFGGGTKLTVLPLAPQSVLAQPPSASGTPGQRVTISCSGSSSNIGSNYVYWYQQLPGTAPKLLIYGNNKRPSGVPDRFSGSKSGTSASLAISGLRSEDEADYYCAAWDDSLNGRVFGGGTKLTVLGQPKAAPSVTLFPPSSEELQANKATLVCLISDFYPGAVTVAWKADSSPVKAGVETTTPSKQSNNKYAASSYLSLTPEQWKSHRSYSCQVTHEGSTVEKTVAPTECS
B5: DGL1146 (bispecific antibody, human IgG1, lambda)
heavy: B2 heavy with Y374M, T376S, E378T, M550L, N556S
light: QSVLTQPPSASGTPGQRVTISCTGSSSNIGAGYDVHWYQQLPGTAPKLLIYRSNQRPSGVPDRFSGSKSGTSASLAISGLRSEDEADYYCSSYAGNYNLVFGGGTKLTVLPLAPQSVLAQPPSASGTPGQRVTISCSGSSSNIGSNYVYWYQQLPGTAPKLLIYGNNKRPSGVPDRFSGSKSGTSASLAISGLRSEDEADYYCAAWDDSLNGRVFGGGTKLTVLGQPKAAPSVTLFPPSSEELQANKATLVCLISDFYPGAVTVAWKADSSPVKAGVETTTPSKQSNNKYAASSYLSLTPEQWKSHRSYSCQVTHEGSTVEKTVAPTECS
B6: DGL218 (bispecific antibody)
chain 1: B1 chain 1
chain 2: not shown
B7: DGL219 (bispecific antibody)
chain 1: QVQLVESGGGLVQAGGSLRLSCAASGRTFSKHAMGWFRQAPGKEREFVAAIDWSGGSTYYADSVKGRFTISRDNAKNTVYLQMDSLKPEDTAVYYCAADSYTDYAQLWLPELESEYDYWGQGTLVTVSSPLAPDKTHTCPPCPAPEAAGAPSVFLFPPKPKDTLMISRTPEVTCVVVDVSHEDPEVKFNWYVDGVEVHNAKTKPREEQYNSTYRVVSVLTVLHQDWLNGKEYKCKVSNKALPAPIEKTISKAKGQPREPQVCTLPPSRDELTKNQVSLSCAVKGFYPSDIAVEWESNGQPENNYKTTPPVLDSDGSFFLVSKLTVDKSRWQQGNVFSCSVMHEALHNHYTQKSLSLSPGWSHPQFEK
chain 2: not shown
B8: DGL220 (bispecific antibody)
chain 1: QVQLVESGGGLVQAGGSLRLSCAASGRTFSKHAMGWFRQAPGKEREFVAAIDWSGGSTYYADSVKGRFTISRDNAKNTVYLQMDSLKPEDTAVYYCAADSYTDYAQLWLPELESEYDYWGQGTLVTVSSPLAPCPPCPAPEAAGAPSVFLFPPKPKDTLMISRTPEVTCVVVDVSHEDPEVKFNWYVDGVEVHNAKTKPREEQYNSTYRVVSVLTVLHQDWLNGKEYKCKVSNKALPAPIEKTISKAKGQPREPQVCTLPPSRDELTKNQVSLSCAVKGFYPSDIAVEWESNGQPENNYKTTPPVLDSDGSFFLVSKLTVDKSRWQQGNVFSCSVMHEALHNHYTQKSLSLSPGWSHPQFEK
chain 2: not shown
B9: DGL221 (bispecific antibody)
chain 1: QVQLVESGGGLVQAGGSLRLSCAASGRTFSKHAMGWFRQAPGKEREFVAAIDWSGGSTYYADSVKGRFTISRDNAKNTVYLQMDSLKPEDTAVYYCAADSYTDYAQLWLPELESEYDYWGQGTLVTVSSGGGGSGGGGSGGGGSGGGGSCPPCPAPEAAGAPSVFLFPPKPKDTLMISRTPEVTCVVVDVSHEDPEVKFNWYVDGVEVHNAKTKPREEQYNSTYRVVSVLTVLHQDWLNGKEYKCKVSNKALPAPIEKTISKAKGQPREPQVCTLPPSRDELTKNQVSLSCAVKGFYPSDIAVEWESNGQPENNYKTTPPVLDSDGSFFLVSKLTVDKSRWQQGNVFSCSVMHEALHNHYTQKSLSLSPGWSHPQFEK
chain 2: not shown
B10: DGL222 (bispecific antibody)
chain 1: QVQLVESGGGLVQAGGSLRLSCAASGRTFSKHAMGWFRQAPGKEREFVAAIDWSGGSTYYADSVKGRFTISRDNAKNTVYLQMDSLKPEDTAVYYCAADSYTDYAQLWLPELESEYDYWGQGTLVTVSSEKSYGPPCPPCPAPEAAGAPSVFLFPPKPKDTLMISRTPEVTCVVVDVSHEDPEVKFNWYVDGVEVHNAKTKPREEQYNSTYRVVSVLTVLHQDWLNGKEYKCKVSNKALPAPIEKTISKAKGQPREPQVCTLPPSRDELTKNQVSLSCAVKGFYPSDIAVEWESNGQPENNYKTTPPVLDSDGSFFLVSKLTVDKSRWQQGNVFSCSVMHEALHNHYTQKSLSLSPGWSHPQFEK
chain 2: not shown
B11: DGL093 (bispecific antibody, IgG1)
chain 1: QVQLVESGGGLVQAGGSLRLSCAASGRTFSKHAMGWFRQAPGKEREFVAAIDWSGGSTYYADSVKGRFTISRDNAKNTVYLQMDSLKPEDTAVYYCAADSYTDYAQLWLPELESEYDYWGQGTQVTVSSDKTHTCPPCPAPEAAGGPSVFLFPPKPKDTLMISRTPEVTCVVVDVSHEDPEVKFNWYVDGVEVHNAKTKPREEQYNSTYRVVSVLTVLHQDWLNGKEYKCKVSNKALPAPIEKTISKAKGQPREPQVCTLPPSRDELTKNQVSLSCAVKGFYPSDIAVEWESNGQPENNYKTTPPVLDSDGSFFLVSKLTVDKSRWQQGNVFSCSVMHEALHNHYTQKSLSLSPG
chain 2: not shown

Each binder was assayed against T1, IL-18 receptor (IL-18Rα and IL-18Rβ) on HEK-Blue IL-18 cells (UniProt Q13478 19-541; O95256 20-599, limits assumed) (assay: cell-based or functional assay).
T1 sequence (looked up) 1: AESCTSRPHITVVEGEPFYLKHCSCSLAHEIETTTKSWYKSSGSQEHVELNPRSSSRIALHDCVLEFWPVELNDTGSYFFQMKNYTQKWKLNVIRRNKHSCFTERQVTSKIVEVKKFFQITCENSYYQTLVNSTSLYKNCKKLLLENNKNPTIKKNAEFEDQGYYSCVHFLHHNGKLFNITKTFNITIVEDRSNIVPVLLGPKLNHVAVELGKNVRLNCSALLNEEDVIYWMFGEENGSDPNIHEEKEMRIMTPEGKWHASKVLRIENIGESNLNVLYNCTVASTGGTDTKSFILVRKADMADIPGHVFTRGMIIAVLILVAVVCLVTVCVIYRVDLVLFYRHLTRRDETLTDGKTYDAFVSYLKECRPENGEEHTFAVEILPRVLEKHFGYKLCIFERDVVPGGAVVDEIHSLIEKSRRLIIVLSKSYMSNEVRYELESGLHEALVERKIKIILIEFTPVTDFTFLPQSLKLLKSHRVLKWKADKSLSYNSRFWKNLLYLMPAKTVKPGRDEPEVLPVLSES
T1 sequence (looked up) 2: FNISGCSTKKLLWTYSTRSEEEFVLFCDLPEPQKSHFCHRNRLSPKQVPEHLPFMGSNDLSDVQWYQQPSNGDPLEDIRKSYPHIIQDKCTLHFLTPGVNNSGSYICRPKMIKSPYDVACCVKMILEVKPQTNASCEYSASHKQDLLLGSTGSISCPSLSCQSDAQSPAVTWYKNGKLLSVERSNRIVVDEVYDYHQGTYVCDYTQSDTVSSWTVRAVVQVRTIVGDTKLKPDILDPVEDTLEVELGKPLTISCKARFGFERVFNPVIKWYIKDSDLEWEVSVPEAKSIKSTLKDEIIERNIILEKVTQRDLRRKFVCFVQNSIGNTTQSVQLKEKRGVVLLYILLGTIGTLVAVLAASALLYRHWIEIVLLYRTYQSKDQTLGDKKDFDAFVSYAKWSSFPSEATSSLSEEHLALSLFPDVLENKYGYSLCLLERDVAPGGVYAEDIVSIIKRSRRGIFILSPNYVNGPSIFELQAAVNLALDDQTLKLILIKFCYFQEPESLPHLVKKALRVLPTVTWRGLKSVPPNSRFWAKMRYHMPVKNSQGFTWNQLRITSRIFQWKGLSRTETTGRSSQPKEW

Binder | HEK-Blue assay, % human IL-18
B1 | 85 % of human IL18 activity

What follows are binders tested against ALK1 / BMPRII receptor pair (BMPR Type I receptor ALK1 and BMPR Type II receptor BMPRII) on cells (UniProt P37023 22-503; Q13873 27-1038, limits assumed) (assay: cell-based or functional assay).
Sequence of ALK1 / BMPRII receptor pair (BMPR Type I receptor ALK1 and BMPR Type II receptor BMPRII) on cells (P37023 22-503 limits assumed, chain 1 of 2): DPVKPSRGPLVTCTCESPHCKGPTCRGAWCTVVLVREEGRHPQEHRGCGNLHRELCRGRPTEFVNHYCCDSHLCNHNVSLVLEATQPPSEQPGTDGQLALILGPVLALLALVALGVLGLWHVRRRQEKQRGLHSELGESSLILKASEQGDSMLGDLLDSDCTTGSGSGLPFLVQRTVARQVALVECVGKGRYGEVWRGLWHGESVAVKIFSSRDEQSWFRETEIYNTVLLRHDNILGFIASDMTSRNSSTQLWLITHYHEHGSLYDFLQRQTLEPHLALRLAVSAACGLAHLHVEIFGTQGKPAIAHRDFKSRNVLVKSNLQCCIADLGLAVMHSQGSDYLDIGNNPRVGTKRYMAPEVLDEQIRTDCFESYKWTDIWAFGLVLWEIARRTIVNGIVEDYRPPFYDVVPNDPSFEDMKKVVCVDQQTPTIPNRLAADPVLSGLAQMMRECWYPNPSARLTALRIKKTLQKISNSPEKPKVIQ
Sequence of ALK1 / BMPRII receptor pair (BMPR Type I receptor ALK1 and BMPR Type II receptor BMPRII) on cells (Q13873 27-1038 limits assumed, chain 2 of 2): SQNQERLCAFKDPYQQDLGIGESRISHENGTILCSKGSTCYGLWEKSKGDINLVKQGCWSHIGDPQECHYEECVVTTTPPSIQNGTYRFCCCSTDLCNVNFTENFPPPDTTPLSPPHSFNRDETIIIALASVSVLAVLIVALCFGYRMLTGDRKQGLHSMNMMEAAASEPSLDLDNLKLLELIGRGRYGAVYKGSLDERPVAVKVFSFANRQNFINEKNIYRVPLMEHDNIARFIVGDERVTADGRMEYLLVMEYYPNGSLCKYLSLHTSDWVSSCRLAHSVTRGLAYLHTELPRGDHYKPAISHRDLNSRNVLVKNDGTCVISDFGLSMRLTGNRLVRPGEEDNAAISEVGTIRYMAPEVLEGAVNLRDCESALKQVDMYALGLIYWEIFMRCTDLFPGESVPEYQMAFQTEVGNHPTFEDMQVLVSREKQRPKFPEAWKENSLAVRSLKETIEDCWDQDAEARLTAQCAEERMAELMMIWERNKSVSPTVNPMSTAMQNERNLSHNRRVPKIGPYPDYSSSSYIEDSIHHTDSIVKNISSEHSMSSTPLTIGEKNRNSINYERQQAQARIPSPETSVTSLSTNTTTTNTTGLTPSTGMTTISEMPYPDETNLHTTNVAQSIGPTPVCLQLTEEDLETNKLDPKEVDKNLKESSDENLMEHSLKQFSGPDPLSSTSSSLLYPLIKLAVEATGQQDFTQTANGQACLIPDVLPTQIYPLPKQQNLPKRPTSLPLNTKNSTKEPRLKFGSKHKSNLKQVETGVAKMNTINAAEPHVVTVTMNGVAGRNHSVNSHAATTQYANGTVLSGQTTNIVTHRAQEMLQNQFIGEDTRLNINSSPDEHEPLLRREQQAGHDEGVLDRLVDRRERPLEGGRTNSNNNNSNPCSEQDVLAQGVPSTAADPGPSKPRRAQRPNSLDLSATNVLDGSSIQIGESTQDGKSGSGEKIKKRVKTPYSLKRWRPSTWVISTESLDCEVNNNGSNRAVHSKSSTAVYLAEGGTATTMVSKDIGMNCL

Binder | Agonist activity in DiscoverX assay, % Emax BMP9 [% Emax BMP9]
B2 | 78
B3 | 47
B4 | 42
B5 | 78

Target: T1, IL-18 receptor (IL-18Rα and IL-18Rβ) on …
Experiment: cell-based or functional assay
Remark: another data set of the same source

Binder | HEK-Blue assay, % human IL18 [% human IL18]
B6 | 44
B7 | 35
B8 | 53
B9 | 19
B10 | 44

Target: T1, IL-18 receptor (IL-18Rα and IL-18Rβ) on …
Experiment: cell-based or functional assay
Remark: another data set of the same source

Binder | HEK-Blue assay, % hu-IL-18
B11 | 65 % of human IL18 activity
B1 | 98 % of human IL18 activity
